Assay results taken from article PMC6378327, “Modes of Accessing Bicarbonate for the Regulation of Membrane Guanylate Cyclase (ROS-GC) in Retinal Rods and Cones” (eNeuro, 2019).

Molecular target: the molecule itself
Experiment: SEC + other: gel electrophoresis without reducing agents; purified fragment in solution; molecular weight markers during FPLC elution (Superdex 200) and gel electrophoresis performed without reducing agents

B1: core catalytic domain fragment of bovine ROS-GC1 (G817-Y965) (domain or fragment)
chain: not shown
notes: bovine ROS-GC1 (retinal membrane guanylate cyclase 1), core catalytic domain, G817-Y965; numbers count on: the mature protein (according to Goraczniak et al., 1994); Cloned into the BglII/NcoI site of pET30Xa/LIC (Novagen); Residue numbers are on the mature protein, so they are shifted by the length of the signal peptide relative to the precursor entry; also called ROS-GC1 fragment; soluble …
  stoichiometry N: 2
